Molecular target: the molecule itself
Experiment: cryo-EM structure

B1: AcrA, periplasmic membrane fusion protein of Escherichia coli (natural protein)
chain: CDDKQAQQGGQQMPAVGVVTVKTEPLQITTELPGRTSAYRIAEVRPQVSGIILKRNFKEGSDIEAGVSLYQIDPATYQATYDSAKGDLAKAQAAANIAQLTVNRYQKLLGTQYISKQEYDQALADAQQANAAVTAAKAAVETARINLAYTKVTSPISGRIGKSNVTEGALVQNGQATALATVQQLDPIYVDVTQSSNDFLRLKQELANGTLKQENGKAKVSLITSDGIKFPQDGTLEFSDVTVDQTTGSITLRAIFPNPDHTLLPGMFVRARLEEGLNPNAILVPQQGVTRTPRGDATVLVVGADDKVETRPIVASQAIGDKWLVTEGLKAGDRVVISGLQKVRPGVQVKAQEVTADNNQQAASGAQPEQSKS
- stoichiometry N: 6 protomers

— paper PMC13095208, “Structural mechanisms of pump assembly and drug transport in the AcrAB–TolC efflux system” (eLife, 2026)
